# In patent publication US20160194399A1 (CYTOMX THERAPEUTICS, published 2016):
# T1: SP34-binding peptide 15865
# T1 peptide: MMYCGGNEVLCGPRV
# T2: SP34-binding peptide 14995
# T2 peptide: YSLWGCEWGCDRGLY
# T3: SP34-binding peptide 15003
# T3 peptide: GYRWGCEWNCGGITT
# T4: SP34-binding peptide 15263
# T4 peptide: WYSGGCEAFCGILSS
# T5: SP34-binding peptide 15286
# T5 peptide: GYSGGCEFRCYQLYS
# T6: SP34-binding peptide 15860
# T6 peptide: VYYCGGNESLCGERR
# T7: SP34-binding peptide 15864
# T7 peptide: FMCQQRMWGNEFCHQ
# B1: Anti-CD3ε antibody SP34 (antibody, V domains shown)
# VH: EVQLVESGGGLVQPKGSLKLSCAASGFTFNTYAMNWVRQAPGKGLEWVARIRSKYNNYATYYADSVKDRFTISRDDSQSILYLQMNNLKTEDTAMYYCVRHGNFGNSYVSWFAYWGQGTLVTVSA
# VL: QAVVTQESALTTSPGETVTLTCRSSTGAVTTSNYANWVQEKPDHLFTGLIGGTNKRAPGVPARFSGSLIGDKAALTITGAQTEDEAIYFCALWYSNLWVFGGGTKLTVL
# notes: Bought mouse monoclonal (BD Biosciences Cat# 556610); also called SP34 antibody
# Experiments:
# [1] = biological target: T1, SP34-binding peptide 15865; test: flow cytometry on peptide-displaying E. coli, 1 nM SP34-dylight-488 with 100 nM isotype control, normalised to peptide expression (yPet-Mona)
# [2] = biological target: T2, SP34-binding peptide 14995; test: as above
# [3] = biological target: T3, SP34-binding peptide 15003; test: as above
# [4] = biological target: T4, SP34-binding peptide 15263; test: as above
# [5] = biological target: T5, SP34-binding peptide 15286; test: as above
# [6] = biological target: T6, SP34-binding peptide 15860; test: as above
# [7] = biological target: T7, SP34-binding peptide 15864; test: as above
# [8] = biological target: T1, SP34-binding peptide 15865; test: flow cytometry on peptide-displaying E. coli, 10 nM SP34-dylight-488 with 100 nM isotype control, normalised to peptide expression (yPet-Mona)
# [9] = biological target: T2, SP34-binding peptide 14995; test: as above
# [10] = biological target: T3, SP34-binding peptide 15003; test: as above
# [11] = biological target: T4, SP34-binding peptide 15263; test: as above
# [12] = biological target: T5, SP34-binding peptide 15286; test: as above
# [13] = biological target: T6, SP34-binding peptide 15860; test: as above
# [14] = biological target: T7, SP34-binding peptide 15864; test: as above
# [15] = biological target: T1, SP34-binding peptide 15865; test: flow cytometry on peptide-displaying E. coli, 0.1 nM SP34-dylight-488 with 100 nM isotype control, normalised to peptide expression (yPet-Mona)
# [16] = biological target: T2, SP34-binding peptide 14995; test: as above
# [17] = biological target: T3, SP34-binding peptide 15003; test: as above
# [18] = biological target: T4, SP34-binding peptide 15263; test: as above
# [19] = biological target: T5, SP34-binding peptide 15286; test: as above
# [20] = biological target: T6, SP34-binding peptide 15860; test: as above
# [21] = biological target: T7, SP34-binding peptide 15864; test: as above
# [22] = biological target: T1, SP34-binding peptide 15865; test: flow cytometry on peptide-displaying E. coli, 100 nM SP34-dylight-488 with 100 nM isotype control, normalised to peptide expression (yPet-Mona)
# [23] = biological target: T2, SP34-binding peptide 14995; test: as above
# [24] = biological target: T3, SP34-binding peptide 15003; test: as above
# [25] = biological target: T4, SP34-binding peptide 15263; test: as above
# [26] = biological target: T5, SP34-binding peptide 15286; test: as above
# [27] = biological target: T6, SP34-binding peptide 15860; test: as above
# [28] = biological target: T7, SP34-binding peptide 15864; test: as above
# [29] = biological target: T1, SP34-binding peptide 15865; test: flow cytometry on peptide-displaying E. coli, 1 nM SP34-dylight-488 with 100 nM free human CD3ε as competitor, normalised to peptide expression (yPet-Mona)
# [30] = biological target: T2, SP34-binding peptide 14995; test: as above
# [31] = biological target: T3, SP34-binding peptide 15003; test: as above
# [32] = biological target: T4, SP34-binding peptide 15263; test: as above
# [33] = biological target: T5, SP34-binding peptide 15286; test: as above
# [34] = biological target: T6, SP34-binding peptide 15860; test: as above
# [35] = biological target: T7, SP34-binding peptide 15864; test: as above
binder,measurement,setting,value
B1,expression normalized binding,[1],0.79
same,expression normalized binding,[2],0.13
same,expression normalized binding,[3],0.2
same,expression normalized binding,[4],0.35
same,expression normalized binding,[5],0.42
same,expression normalized binding,[6],0.52
same,expression normalized binding,[7],0.36
same,expression normalized binding,[8],1.08
same,expression normalized binding,[9],0.11
same,expression normalized binding,[10],0.39
same,expression normalized binding,[11],0.69
same,expression normalized binding,[12],0.66
same,expression normalized binding,[13],1.72
same,expression normalized binding,[14],0.63
same,expression normalized binding,[15],0.21
same,expression normalized binding,[16],0.08
same,expression normalized binding,[17],0.11
same,expression normalized binding,[18],0.24
same,expression normalized binding,[19],0.28
same,expression normalized binding,[20],0.48
same,expression normalized binding,[21],0.15
same,expression normalized binding,[22],2.24
same,expression normalized binding,[23],0.51
same,expression normalized binding,[24],0.69
same,expression normalized binding,[25],2.28
same,expression normalized binding,[26],1.72
same,expression normalized binding,[27],4.55
same,expression normalized binding,[28],1.88
same,expression normalized binding,[29],0.26
same,expression normalized binding,[30],0.08
same,expression normalized binding,[31],0.12
same,expression normalized binding,[32],0.34
same,expression normalized binding,[33],0.34
same,expression normalized binding,[34],0.51
same,expression normalized binding,[35],0.3
